Molecular target: the molecule itself
Assay: SEC; analytical gel filtration, Superdex 200 10/30, 200 µL of 4 mg/mL protein in 50 mM glycyl-glycine pH 7.6, 500 mM NaCl, 6°C; apparent masses estimated from protein standards; semiquantitative

B1: human full-length transketolase (enzyme, UniProt P29401 1-623, looked up)
chain: MESYHKPDQQKLQALKDTANRLRISSIQATTAAGSGHPTSCCSAAEIMAVLFFHTMRYKSQDPRNPHNDRFVLSKGHAAPILYAVWAEAGFLAEAELLNLRKISSDLDGHPVPKQAFTDVATGSLGQGLGAACGMAYTGKYFDKASYRVYCLLGDGELSEGSVWEAMAFASIYKLDNLVAILDINRLGQSDPAPLQHQMDIYQKRCEAFGWHAIIVDGHSVEELCKAFGQAKHQPTAIIAKTFKGRGITGVEDKESWHGKPLPKNMAEQIIQEIYSQIQSKKKILATPPQEDAPSVDIANIRMPSLPSYKVGDKIATRKAYGQALAKLGHASDRIIALDGDTKNSTFSEIFKKEHPDRFIECYIAEQNMVSIAVGCATRNRTVPFCSTFAAFFTRAFDQIRMAAISESNINLCGSHCGVSIGEDGPSQMALEDLAMFRSVPTSTVFYPSDGVATEKAVELAANTKGICFIRTSRPENAIIYNNNEDFQVGQAKVVLKSKDDQVTVIGAGVTLHEALAAAELLKKEKINIRVLDPFTIKPLDRKLILDSARATKGRILTVEDHYYEGGIGEAVSSAVVGEPGITVTHLAVNRVPRSGKPAELLKMFGIDRDAIAQAVRGLITKA
notes: human transketolase (TKT, EC 2.2.1.1), full length, residues 1-623, expressed from a synthetic codon-optimized tkt gene in pET28a; Expressed and purified by the same protocol as TKTΔ38; also called TKT; full-length TKT; source: E. coli BL21*, purified (Ni-NTA, desalting column)
stoichiometry N: 2

Source: PMC3485151, “A Δ38 Deletion Variant of Human Transketolase as a Model of Transketolase-Like Protein 1 Exhibits No Enzymatic Activity” (PLoS ONE, 2012)
